Molecular target: the molecule itself
Experiment: negative-stain electron microscopy of polymerised samples; polymerised 16 h at 298 K at 20 uM in F buffer without jasplakinolide, diluted to 1 uM, stained with 2% uranyl acetate

B1: Plasmodium falciparum actin I, wild type (natural protein)
chain: not shown
notes: Plasmodium falciparum actin I; His74 is not methylated in the recombinant protein; In the pyrene assay about 10% of the actin carried N-(1-pyrene)iodoacetamide; also called PfActI; P. falciparum actin I; source: insect cells, purified (Ni-NTA, TEV cleavage, second Ni-NTA, Superdex 200 gel filtration)
B1: binds.

— article PMC6599135, “Atomic view into Plasmodium actin polymerization, ATP hydrolysis, and fragmentation” (PLoS Biology, 2019)
